According to the supplement of paper PMC9170038:

Test system: MS2 coat protein
Assay: apparent KD of MS2 coat protein; designed switch direction (-1 OFF switch, 1 ON switch): -1; higher = weaker reporter binding
How it was run: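 Designed RNA switches were transcribed on Illumina chips by stalled E. coli RNA polymerase and titrated with SNAP-549-labelled MS2 coat protein from 0.7 or 1.5 nM, doubling to 3 µM. Step length ran from 0.8–1.5 h at the lowest concentration to 10–20 min at the highest. The apparent KD is the median over clusters for each design, from curve-fitted normalised cluster fluorescence.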

[1] = Eterna round: R95, input ligand: FMN 200 uM
[2] = Eterna round: R95, input ligand: microRNA oligo, concentration not stated
[3] = Eterna round: R95, input ligand: none
[4] = input ligand: microRNA oligo, concentration not stated

Sequence	apparent KD of MS2 coat protein (input ligand: FMN 200 uM)	apparent KD of MS2 coat protein (input ligand: none)	apparent KD of MS2 coat protein [1]	apparent KD of MS2 coat protein [2]	apparent KD of MS2 coat protein [3]	apparent KD of MS2 coat protein [4]
AAAUAGCUUGAGGAUAUUGGACUGGAUUCAGUGCGAGAAGGCAAGACAUGAGGAUCACCCAUGUUGUGUUGGGA [EX6 #10] (Eterna round: R97, puzzle: Exclusion 6)	180 nM	91.6 nM				
AAAUAGUAGCAGGAUAUGAGUAUUAUUGGAAGCUCAGAAGGGCUGACAUGAGGAUCACCCAUGUGUUAUGUCGG [Eternabot (L1) Solution 54] (Eterna round: R97, puzzle: Exclusion 6)	49.1 nM	177 nM				
AAAUAGUCAGGAUAUACAUGAGGAUCACCCAUGUAAACUUUUAGUUUAAUUUGAAUGUGUAGAAGGGACAUAAA [Ex3 #50] (Eterna round: R97, puzzle: Exclusion 3)	31.4 nM	29.3 nM				
AAAUCACAUGAGGAUCACCCAUGUCAGGAUAUCGACUGAACAGCUUCGGCUGUUCAGUCGAGAAGGGACAAUUA [Brourdxlusion 1 - Jieux - Exclusion 1] (Eterna round: R97, puzzle: Exclusion 1)	133 nM	43.2 nM				
AAAUCAGAGGAGGAUAUGGUAUAGGAAAUGGUGCCAGAAGGUUUCACAUGAGGAUCACCCAUGUCAAAUAGUGA [EX6 #62] (Eterna round: R97, puzzle: Exclusion 6)	49.2 nM	60.4 nM				
AAAUCGGCAGGAUAUACAUGAGGAUCACCCAUGUAAAUUUUUCGUUUAACUUGAAUGUGUAGAAGGGCCAUUAA [Ex3 #64] (Eterna round: R97, puzzle: Exclusion 3)	24.8 nM	24.6 nM				
AAAUCGGUAGAGGAUAUUGUACAGGAAACGGUGCAAGAAGGUUACACAUGAGGAUCACCCAUGUUAAAUAGCGA [EX6 #53] (Eterna round: R97, puzzle: Exclusion 6)	26.9 nM	18.1 nM				
AAAUCGGUGGAGGAUAUUGUACAGGAAACGGUGCGAGAAGGUUACACAUGAGGAUCACCCAUGUUAAAUAGCGA [EX6 #56] (Eterna round: R97, puzzle: Exclusion 6)	25.2 nM	22.1 nM				
AAAUGACAUUAGGAUAUGUAACGCGGUUGCCGCACAGAAGGGAUGACUUGAGGAUCACCCAAGUGACCCAAGGA [Tixebion] (Eterna round: R97, puzzle: Exclusion 6)	26.4 nM	28.2 nM				
AAAUGAGAGCAGGAUAUCUUAUAAAUGUAUGAAAGAGAAGGGCUCACAUGAGGAUCACCCAUGUGGUCCUAGAU [jl-ex6-4.77 jandersonlee mod] (Eterna round: R97, puzzle: Exclusion 6)	673 nM	32.7 nM				
AAAUGUUCGGAGGAUAUAGAACGAUUGUCCGAGCUAGAAGGCCGAACAUGAGGAUCACCCAUGUGUACCUGAAA [Atmare] (puzzle: Exclusion 6)			256 nM	38.8 nM	41.2 nM	
AAAUUAGCAAGUAGAUCCGACAUGAGGAUCACCCAUGUUAUCUGAAAGAACGCAGCAUAAUUGUGAGCUCGUCUAAA [Sensor-V1 #4] (Eterna round: R97, puzzle: Sensor, turn-off variant 1)	93.7 nM	91.5 nM				
AAAUUAGCAAGUAGGUCCGACAUGAGGAUCACCCAUGUAAGCUAAUCUUACGCUGCAUGAGAGUGCGCUCGUCUUAA [Sensor-V1 #19] (Eterna round: R97, puzzle: Sensor, turn-off variant 1)	360 nM	515 nM				
AAAUUAGCAAGUAGGUCCGACAUGAGGAUCACCCAUGUUAGCUAAUCUAACGCUGCAUGAGAGUGCGCUCGUCUUAA [Sensor-V1 #20] (Eterna round: R97, puzzle: Sensor, turn-off variant 1)	140 nM	149 nM				
AAAUUCAGAGGAUAUGCGCAUAGAUAAGACUUUUUUUCUUAACAUGAGGAUCACCCAUGUAGAAGGCUGUAAAC [Ex2 #61] (Eterna round: R97, puzzle: Exclusion 2)	18.8 nM	16.2 nM				
AAAUUCUGAGGAUAUCGAUGUUUGUACAUGAGGAUCACCCAUGUCCUUUUUAUUUUUUCCCGAGAAGGCAGUGUAU [JR_E5_Sub099] (puzzle: Exclusion 5)				36.6 nM		
AAAUUGGUAGAGGAUAUCGCACAGGAUUUACUGCGAGAAGGCUGCACAUGAGGAUCACCCAUGUUUAGUUGCGA [EX6 #36] (Eterna round: R97, puzzle: Exclusion 6)	20.3 nM	17.3 nM				
AAAUUGUGAGGAUAUUCGUAGUACACGGAGACGUGUAUUACGGAGAAGGCACAUGAGGAUCACCCAUGUUCCUU [jl-ex4-13 Eli mod] (Eterna round: R97, puzzle: Exclusion 4)	103 nM	19.1 nM				

Sequence	apparent KD of MS2 coat protein (input ligand: FMN 200 uM)	apparent KD of MS2 coat protein (input ligand: none)	apparent KD of MS2 coat protein [1]	apparent KD of MS2 coat protein [2]	apparent KD of MS2 coat protein [3]	apparent KD of MS2 coat protein [4]
AACAAAAGCGUAGGAUAUGACUGGGCUCAUGCCUAACAUAACUACAAACAUGAGGAUCACCCAUGUCAGAAGGACGAAUAAAAU [Isesbequti] (Eterna round: R96, puzzle: Exclusion NG 2)	87.1 nM	72 nM				57.5 nM
AACAAGCUUUUAAGAUGAAAGAUAGUAGGUAGCUCCUUUACAUGAGGAUCACCCAUGUUUGUGUAGCUCGAUCUUAU [JR_SV3TOV2_Sub076] (puzzle: Sensor v3, turn-off variant 2)			12.3 nM	37.4 nM	11.5 nM	
AACACUGUAGGAUAUCAUGAACUGGACUUGAGGAUCACCCAAGUGUAUCCUGGAGUGCCGUGAGAAGGACGGAAAA [Erzalelaan] (Eterna round: R97, puzzle: Exclusion 5)	56.5 nM	46.9 nM				
AACAGUACAGGAUAUACAUGAGGAUCACCCAUGUGAGAAACCACUGGCGUACCAGAAAGUAGAAGGGUACUGGA [Moding Maslow Revisited (73) 29] (Eterna round: R96, puzzle: Exclusion 3)	307 nM	146 nM				160 nM
AACCAUGAAGGAUAUGACUUAACGAACAUGAGGAUCACCCAUGUGACCGAGCAGUGUUGAUCAGAAGGUUAAGGUG [Rier] (puzzle: Exclusion 5)			101 nM	83.7 nM	139 nM	
AACCCUUGUGUUAGGAUAUGUCACUACCAUAUGCGACAGAAGGAACAUGAGGAUCACCCAUGUGAGUUAGCCAA [Quesveququ] (puzzle: Brourd's mod of Exclusion 4)				36 nM		
AACCUGAGGCAAAGCUUUAGGUGUACAUGAGGAUCACCCAUGUAGGAUAUGGUAGGCAAAGCUUACCAGAAGGACAUAAAGGUU [Mat - Exclusion NG 3 - Mod of JL - D45] (Eterna round: R96, puzzle: Exclusion NG 3)	81.4 nM	47.7 nM				36.4 nM
AACCUGAGGCUUUGCUUUAGGUGUACAUGAGGAUCACCCAUGUAGGAUAUGGUAGGCUUUGCUUACCAGAAGGACAUGUUAAUU [JL ENG3 1.11] (Eterna round: R96, puzzle: Exclusion NG 3)	201 nM	47.1 nM				48.9 nM
AACCUGAGGCUUUGCUUUAGGUGUACAUGAGGAUCACCCAUGUAGGAUAUGGUAGGCUUUGCUUACCAGAAGGACAUUUAGGUU [JL ENG3 1.15] (Eterna round: R96, puzzle: Exclusion NG 3)	110 nM	43 nM				33.6 nM
AACGACUGAGGAUAUACAUGAGGAUCACCCAUGUGUUGAAAUACGUGCUUGGUUAACUGUAGAAGGCAGAAAAU [Isxeen] (puzzle: Exclusion 3)			21.9 nM	12.8 nM	14 nM	
AACUAGGCAGGAUAUACAUGAGGAUCACCCAUGUAAAUUUUUCGUUUAACUUGAAUGUGUAGAAGGGCCAUAAA [Ex3 #52] (Eterna round: R97, puzzle: Exclusion 3)	23.3 nM	24.6 nM				
AACUAGUCAGGAUAUACAUGAGGAUCACCCAUGUAAACUUUUAGUUUAAUUUGAAUGUGUAGAAGGGACAUAAA [Ex3 #43] (Eterna round: R97, puzzle: Exclusion 3)	20.7 nM	20.3 nM				
AACUAGUGAGGAUAUACAUGAGGAUCACCCAUGUACGUCGUGGGUAGAAAACAAGUCAGUAGAAGGUGCUAGAC [Ininor] (puzzle: Exclusion 3)				174 nM		
AACUCACAUGAGGAUCACCCAUGUGAGGAUAUGAUACUAUGUACUUCGGUACAUAGUAUCAGAAGGCAUGUGGG [Ex1-3: 94] (puzzle: Exclusion 1)				49.7 nM		
AACUGUACAGGAUAUACAUGAGGAUCACCCAUGUGAGAAUUAAGUGGAGAACCACAAAGUAGAAGGGUACAGGA [Mat - Exclusion 3 - JL mod - D17] (Eterna round: R96, puzzle: Exclusion 3)						38.4 nM
AACUGUCUAGAGGAUAUGCUGGAUUAAUAUCUGGCAGAAGGUUGGACAUGAGGAUCACCCAUGUAAAUACUACC [Omei Ex6 A7] (Eterna round: R97, puzzle: Exclusion 6)	33.1 nM	20.3 nM				
AACUUCUGAGGAUAUACAUAGAUUUACAUGAGGAUCACCCAUGUUCCUCUAUGUAUAAAUGUAGAAGGCAGAAGAG [Mat - Exclusion 5 - JL Mod - D63] (Eterna round: R97, puzzle: Exclusion 5)	71.3 nM	17.2 nM				
